Laboratory results: patent publication US20070009524A1

Legend:
[1] = molecular target: human lymphotoxin (TNFβ) (human) (UniProt P01374); experiment: cell-based or functional assay
[2] = molecular target: human tumor necrosis factor-α (TNFα) (human) (UniProt P01375); experiment: cell-based or functional assay
Sequence of human tumor necrosis factor-α (TNFα) (human) (P01375 77-233): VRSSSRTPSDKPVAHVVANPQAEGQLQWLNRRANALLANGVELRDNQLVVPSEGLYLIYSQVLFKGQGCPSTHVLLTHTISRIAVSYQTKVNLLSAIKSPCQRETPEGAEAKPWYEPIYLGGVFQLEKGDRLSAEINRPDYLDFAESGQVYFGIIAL

Sequence of human lymphotoxin (TNFβ) (human) (P01374 35-205 limits assumed): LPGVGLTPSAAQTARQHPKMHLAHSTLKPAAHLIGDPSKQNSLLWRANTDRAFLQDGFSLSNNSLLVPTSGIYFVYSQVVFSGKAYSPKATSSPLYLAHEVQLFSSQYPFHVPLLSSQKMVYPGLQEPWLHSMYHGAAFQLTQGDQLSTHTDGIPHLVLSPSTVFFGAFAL

| Molecule | concentration to half-inhibit human TNFβ at 2 pM (WEHI 164 cytotoxicity) [1] | IL-6 secreted by FS-4 fibroblasts, TNF 0.3 ng/ml, 4 µg/ml antibody [2] | IL-6 secreted by FS-4 fibroblasts, TNF 1.5 ng/ml, 4 µg/ml antibody [2] | IL-6 secreted by FS-4 fibroblasts, TNF 7.5 ng/ml, 4 µg/ml antibody [2] |
| --- | --- | --- | --- | --- |
| p75P-sf2 fusion protein (from UniProt P20333 23-204) (Fc fusion) | 31 pM |  |  |  |
| chimeric mouse/human IgG1 anti-platelet mAb (7E3) (antibody, INN chains, looked up, V domains shown, chimeric IgG1) VH: EVQLQQSGTVLARPGASVKMSCEASGYTFTNYWMHWVKQRPGQGLEWIGAIYPGNSDTSYIQKFKGKAKLTAVTSTTSVYMELSSLTNEDSAVYYCTLYDGYYVFAYWGQGTLVTVSA VL: EIVLTQSPVTLSVTPGDSVSLSCRASRDISNNLHWFQQTSHESPRLLIKYASQSMSGIPSRFSGSGSGTDFTLSINSVETEDFGMYFCQQTNSWPYTFGGGTKLEIK |  | 1.6 ng/mL | 1.96 ng/mL | 2.16 ng/mL |
